Assays:
MS2 coat protein = assay: apparent KD of MS2 coat protein; higher = weaker reporter binding; conditions: Eterna round: R107
Procedure: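 RNA-MaP round R107: designed RNA switches with theophylline, tryptophan, arginine or FMN aptamers are transcribed on-chip within common flanks. They are titrated with SNAP-549-labelled MS2 coat protein in RNA-MaP buffer (100 mM Tris pH 7.5, 80 mM KCl, 4 mM MgCl2), without ligand or with the indicated ligand. Median apparent KD per design.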

[1] = system: K4 kissing-loop RNA reporter; assay: apparent KD of K4 kissing-loop reporter; higher = weaker reporter binding; conditions: Eterna round: R107;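 further: bound reporter read as fluorescence of individual clusters on recovered sequencing chips by microscopy, with normalized cluster intensities fitted with a binding model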
Procedure: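 RNA-MaP round R107: designed RNA switches with theophylline, tryptophan, arginine or FMN aptamers are transcribed on-chip within common flanks. They are titrated with a labelled K4 kissing-loop RNA reporter in RNA-MaP buffer (100 mM Tris pH 7.5, 80 mM KCl, 4 mM MgCl2), without ligand or with the indicated ligand. Median apparent KD per design.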

[2] = input ligand: theophylline 20 uM
[3] = input ligand: tryptophan 2.4 mM
[4] = input ligand: theophylline 2 mM

Row | Sequence | apparent KD of MS2 coat protein (MS2 coat protein; input ligand: arginine 13.2 mM) [nM] | apparent KD of MS2 coat protein (MS2 coat protein; [2]) [nM] | apparent KD of MS2 coat protein (MS2 coat protein; [3]) [nM] | apparent KD of MS2 coat protein (MS2 coat protein; input ligand: none) [nM] | apparent KD of MS2 coat protein (MS2 coat protein; [4]) [nM] | apparent KD of K4 kissing-loop reporter ([1]; input ligand: FMN 200 uM) [nM] | apparent KD of K4 kissing-loop reporter ([1]; input ligand: arginine 13.2 mM) [nM] | apparent KD of K4 kissing-loop reporter ([1]; input ligand: none) [nM] | apparent KD of K4 kissing-loop reporter [1, 2] [nM] | apparent KD of K4 kissing-loop reporter [1, 3] [nM]
1 | AUCGUACCUGGUGAUACCAGCAAGUGAUUAUAACAUGAGGAUCACCCAUGUAAUCAGUGAUGCCCUUGGCAGCAUAAUCGGUACA [#24 Same State - Theophylline B] | 26.9 | 37.8 | 26.6 | – | – | – | – | – | – | –
2 | AAUCAUAGGGCGGCCGCCACUAAACAUGAGGAUCACCCAUGUCUCGAGGGCUUGCGUUUGGGAAGUAGGACCGGGCCAAUAGUAA [Tryp B Ex Mod2] | 18 | 23 | 16.1 | 19.1 | 17 | – | – | – | – | –
3 | UCGCCCAGGAAGGAUUCCUGGGAUAUGGAAGGAGCGCUGAUGCCAGCAGGUAGGUCGCCAACGGACAUGAGGAUCACCCAUGUAC [Same State - Arginine A (Freestyle 8)] | 14.5 | 22.7 | 21.2 | 19.9 | 26.6 | – | – | – | – | –
4 | GAUAGUUGAUGGGAUACCAGCGUGCACAUGAGGAUCACCCAUGUGGUUCGUGUACGACGGCGCCCUUGGCAGCCCAUAUUGUGUA [#13 Same State - Theophylline B] | 58.2 | 116 | 181 | – | – | – | – | – | – | –
5 | UGUAACAUGAGGAUCACCCAUGUGAGUGAUACCAGAUAAGUAGUAGUCCCUUGGCAGCAUAUUGGGCGAGUGUAUAGUCUAUACG [Same State - Theophylline A (Freestyle 8)] | 111 | 183 | 150 | – | – | – | – | – | – | –
6 | AUUGUGAAGUCGGCCGCCACUGGUUAGUUUAACCUCAUGUAACAUGAGGAUCACCCAUGUAAUGACAGGACCGGGACAAUAGUAA [JR_ExcTryptoB_Sub015] | 103 | 126 | – | – | 194 | – | – | – | – | –
7 | UCUUUCUAUGUAGAUACCAGCAUGUUAUAUUUCUAAUGACAUGAGGAUCACCCAUGUAAAUGCCCUUGGCAGCUACAUUUUCUUU [SSTHB #4] | 21.6 | 22.3 | 23.7 | – | – | – | – | – | – | –
8 | CUGGACAUGAGGAUCACCCAUGUAAAUCCUCGAGGACCGGUACGGCCGCCACUCGAACGAGUGGCGCGCGAGUGCGCACUCGCGC [aKa] | 43.6 | 66.9 | 28.3 | 41.4 | 49.3 | – | – | – | – | –
9 | AGUAUCAGUGGAAGGAGCGUCGCGAAUGCCACAUGAGGAUCACCCAUGUCGCCUUGAGCGCGACAGGUAGGUCGCCACGGUAGGC [SS-ArgB3] | 53.2 | 174 | 140 | 208 | 338 | – | – | – | – | –
10 | UCACGACGCAACGUGAAAUAAUAAACAGAAGGAGCGAGGAAAGCCUCAGGUAGGUCGCUGACAUGAGGAUCACCCAUGUAUUACA [Same State Arginine A GF5] | 27.1 | 41.2 | 32.2 | 31.5 | 35.1 | – | – | – | – | –
11 | CACAUGAGGAUCACCCAUGUCUGAACUGAAGGAGCGCUAAAUAAGGCAGGUAGGUCGCGGAAUUUUGUGUGCAUAUGCACAUGGG [9.P] | 17.2 | 30.7 | 23.9 | 27.9 | 26.9 | – | – | – | – | –
12 | GGGUACAUCGCGGCCGCCACUCAUGUAAAUACCUGAGGAUCACCCUGGUCGAUGGAGACAUCGAAGAGGACCGGGUGAUGUACCG | 91.2 | 371 | 44.6 | 252 | 528 | – | – | – | – | –
13 | UACUUACAUGAGGAUCACCCAUGUGGCGAAGGAGCGGCAUGAGGGCCAGGUAGGUCGCGCCAACAUACAUACAUGAGGAUCUCCC [Same State Arginine A 4] | 46.3 | 127 | 93.1 | 78.9 | 118 | – | – | – | – | –
14 | GGAUAGGACACGGCCGCCACUAUCUAGGAUACUAGCAACAUUUGGGUAUAUGAGGAUCACCCAUAUAGGACCGGGUGUCCUAUCG | 138 | 330 | 471 | 214 | 303 | – | – | – | – | –
15 | GCUUGGGUCGCAAGGCCCUGGCGUUGCGAUACCAGCACGGUAACGUGCCCUUGGCAGCGCACAUGAGGAUCACCCAUGUGGUGCG [#1 Exclusion - Theophylline A Attempt #22 (HarryS)] | 16.5 | 27.8 | 17.4 | 18.3 | 229 | – | – | – | – | –
16 | ACAUGUUGGUGGUACCAACGAAGGCGGAAACGAGGACCGGUACGGCCGCCACUCGGCGACAUGAGGAUCACCCAUGUGGUUAAAA [Exclusion - Tryptophan A (Freestyle 3)] | – | 134 | 70 | 398 | 95.7 | – | – | – | – | –
17 | GUUAUAUACUCGGCCGCCACUGAGAGAGUCAUGUAAACAUGAGGAUCACCCAUGUAAUAUAUAUACAGGACCGGGAGUAUAGUAA [4.D] | 19.8 | 22 | – | – | 19.6 | – | – | – | – | –
18 | UGUUUCGCGGGCGAUACCAGCUUGAUCGUACUGGCCUGGUACAUGAGGAUCACCCAUGUAAGCCCUUGGCAGCGCGCGCGAGACG [#1 Exclusion - Theophylline B Attempt #3 (HarryS)] | 19.6 | 18.9 | 15.7 | 13.5 | 32.4 | – | – | – | – | –

Row | Sequence | apparent KD of MS2 coat protein (MS2 coat protein; input ligand: arginine 13.2 mM) [nM] | apparent KD of MS2 coat protein (MS2 coat protein; [2]) [nM] | apparent KD of MS2 coat protein (MS2 coat protein; [3]) [nM] | apparent KD of MS2 coat protein (MS2 coat protein; input ligand: none) [nM] | apparent KD of MS2 coat protein (MS2 coat protein; [4]) [nM] | apparent KD of K4 kissing-loop reporter ([1]; input ligand: FMN 200 uM) [nM] | apparent KD of K4 kissing-loop reporter ([1]; input ligand: arginine 13.2 mM) [nM] | apparent KD of K4 kissing-loop reporter ([1]; input ligand: none) [nM] | apparent KD of K4 kissing-loop reporter [1, 2] [nM] | apparent KD of K4 kissing-loop reporter [1, 3] [nM]
19 | ACAUGAGGAUCACCCAUGUACAUGAGGGAAGGAGCGGUACAUGUGCCAGGUAGGUCGCCCAACAGCAUCAGCCAUGUACAACAGG [zqwmullin] | 41.3 | 72.6 | 61 | 162 | 79.2 | – | – | – | – | –
20 | GUGUGGAGCUCGGCCGCCACUCAAACAUGAGGAUCACCCAUGUAAAACAUGAGGAUCACCCAUGUGAGGACCGGGAGAAACACGA [Exclusion Tryptophan B GF8] | 179 | 329 | – | – | 408 | – | – | – | – | –
21 | GAAUAAUAAGUAGCAGUGAUGUUGCUACUACGAGGACCGGUACGGCCGCCACUCGAAUACGAGUGGACACUGCUACUACCACUCG [(H1)-(H2)-(Trp1)-(Trp2)-(T)'-(H)'-(T)''_Design8] | – | – | – | – | – | 121 | 118 | 121 | 122 | 170
22 | UAAGACAUGAAAGGAUAUCCGAUAUGGAGCCUUUAGUGAUGUUAGGAGCUAGCCGUAGACAAGAUCGGAGAAGGUUCAACCCACA [theeternabot_sameState_KL_FMN_B_13] | – | – | – | – | – | 787 | 506 | 646 | 705 | 640
23 | CGUUCAUCCUAGGCGUGAGUGAUGUUUACCCGAGGACCGGUACGGCCGCCACUCGUAUGGCGAGAGUUUAGCCAUUUCCAAUAUA [theeternabot_exclusion_KL_Trp_A_17] | – | – | – | – | – | 465 | 403 | 503 | 505 | 398
24 | GUCCCGAGUGAUGUUCGGGUCGUUCGGGAAGGAGCGCCCGCAAGGGCAGGUAGGUCGCCCGGAUCUCUCAGGUAACUGAGAGACC [#2 Same State - Arginine A Attempt #28 (HarryS)] | – | – | – | – | – | 553 | 319 | 431 | 408 | 416
25 | CCGAUACAUUAUUCUACGGCCGAGAGUGAUACCAGCCGUAUUUGUGGCCCUUGGCAGCGCAGAUGCAGUGAUGUUGCAUACUUGU [Same State Theophylline A GF 20] | – | – | – | – | – | 68.7 | 93.7 | 78.1 | 96.6 | 63.5
26 | UGUCAUUGGUCGGCCGCCACUGAAAUAAAAGAGUGAUGUUCUUAAAAGACGGACAAAGUCUGUCAUAGGACCGGGACCGAUGACU [TrypBS 24 #SwitchBubble #StaticStem] | – | – | – | – | – | 662 | 558 | 473 | 369 | 380
27 | AGGGAACGCACGGAUACCAGACUCAUAGUGAUGUUGUGGGUAUAAAUUAGCGCAUACACAGUCCCUUGGCAGCCGCUGAAUGGCC [theeternabot_exclusion_KL_Theo_B_1] | – | – | – | – | – | 829 | 644 | 971 | 835 | 505
28 | UGAUACCAGACGGCCGCCACUACACCAGUCAAAGACUGGAUGUGAUGUUCGACCAGUGAUGUUGGUAGGACCGGGUCUGGUAUCU [TrypBX 7 #Palindromic #SwitchBubble #StaticStem] | – | – | – | – | – | 133 | 121 | 127 | 109 | 147
29 | AGGCACGAGCAAGGAUAUCGAGUAGAGUGAUGUUCUGCCUGGGUUGGCUCGGAAGGGCCUUCCCAGCGAGAAGGUGCUCGUGCCU [#2 Same State - FMN A Attempt #16 (HarryS)] | – | – | – | – | – | 189 | 637 | 590 | 674 | 493
30 | GGAGGGAUCUCGGCCGCCACUCAUAAGAAAUGGGCCUCAGAAAUAUAGUGAUGUUAUGUAAAGAAGAGGACCGGGAGAAAGAAGG [ExTryptoB.Da] | – | – | – | – | – | 390 | 202 | 324 | 218 | 242
31 | CCCAAGGGCCUACCGGUAUUAUUAACGGAUACCAGAGGCGAAAGCCUCCCUUGGCAGCCGGGUGUAGUGAUGUUACUCCGGUAGU | – | – | – | – | – | 83.4 | 64.7 | 70.2 | 63.2 | 78.1
32 | GGCACUUUUGCUUGGAACCGUCAAGCUCGAUAGGAUAUGCCGAAAGGCAGAAGGAUUGACCUACAGAGUGAUGUUCUGCGUGCCU | – | – | – | – | – | 791 | 378 | 830 | 288 | 408
33 | UCCUACGAGGUAACGUGGAUAUCUCGUUGCAAGGAUAUCUGGAAACAGAGAAGGUGCAACAUUAUCGGCAGUGAUGUUGCUGACC | – | – | – | – | – | 711 | 242 | 482 | 385 | 280
34 | UGACUGGAUGGAAGGAGCGCUAAACUCCUAGUGAUGUUAGGGAUACGAGGCAAAGCCUCGAAGCAGGUAGGUCGCCAUCUAGUCU [FiskerMod 21 - Jieux - Same State - Arginine B] | – | – | – | – | – | 171 | 123 | 146 | 171 | 159
35 | GGAGGAGAAUAUGAUACCAGCAGAGAGAGAGAGGAAGUAUAGUGAUGUUAUAUGAGAGAAUGCCCUUGGCAGCAUAAGACGCAGG [#07 K4 Theophylline B Same State] | – | – | – | – | – | 194 | 114 | 110 | 144 | 94.7
36 | CCUAUCUCUUACGAUACCAGUCAAUGAUAUUUUAUCAAUGCCCUCACCGAGUGAUGUUCGGACCCUUGGCAGCGUAUGGGAUAGG [kjnjmullin] | – | – | – | – | – | 241 | 162 | 212 | 175 | 188
